From the supplement of paper PMC7125110
± gives the standard error. Variants at the floor of the assay were thinned out.

B1: glmS ribozyme (parent)
chain: AUAAAAGCGCCAGAACUACAGAAAUGUAGUUGACGAGGAGGAGGUUUAUCGAAUUUUCGGCGGAUGCCUCCAAA

Columns and labels:
Conditions in all cases: with glucosamine-6-phosphate
glucosamine-6-phosphate [1] = variants of: B1; assay: self-cleavage kobs at 40 uM GlcN6P; higher = faster cleavage; RNA array
Summary of the method: (§1)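 E. coli RNA polymerase transcribed barcoded ribozyme variants in situ on sequenced MiSeq chips, which were tracked via a hybridised Cy3 probe at 37 °C. Tiles were imaged over ~14 h after glucosamine-6-phosphate (40 μM to 10 mM) in HEPES/KCl/Mg(OAc)2 buffer was flowed in. Normalised per-tile medians were fit to one- or two-exponential decays for kobs, and kcat and KM came from weighted Michaelis–Menten fits.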

glucosamine-6-phosphate [2] = variants of: B1; assay: self-cleavage kobs at 640 uM GlcN6P; higher = faster cleavage; RNA array
Summary of the method: as §1

glucosamine-6-phosphate [3] = variants of: B1; assay: self-cleavage kobs at 2500 uM GlcN6P; higher = faster cleavage; RNA array
Summary of the method: as §1

glucosamine-6-phosphate [4] = variants of: B1; assay: self-cleavage kobs at 160 uM GlcN6P; higher = faster cleavage; RNA array
Summary of the method: as §1

glucosamine-6-phosphate [5] = variants of: B1; assay: self-cleavage kobs at 10000 uM GlcN6P; higher = faster cleavage; RNA array
Summary of the method: as §1

Variant | self-cleavage kobs at 40 uM GlcN6P (glucosamine-6-phosphate [1]) [s⁻¹] | self-cleavage kobs at 640 uM GlcN6P (glucosamine-6-phosphate [2]) [s⁻¹] | self-cleavage kobs at 2500 uM GlcN6P (glucosamine-6-phosphate [3]) [s⁻¹] | self-cleavage kobs at 160 uM GlcN6P (glucosamine-6-phosphate [4]) [s⁻¹] | self-cleavage kobs at 10000 uM GlcN6P (glucosamine-6-phosphate [5]) [s⁻¹]
C8U G9C G35U C61G | < 1e-05 |  |  |  | 
C8A A14G U57C | < 1e-05 | < 1e-05 | < 1e-05 |  | 
G43U C71G | < 1e-05 | < 1e-05 |  | < 1e-05 | < 1e-05
U54A C71A | 0.000351 ± 6.3e-05 | 0.000818 ± 0.00011 | 0.00847 ± 0.0023 | 0.000583 ± 8.5e-05 | 0.0109 ± 0.0026
A36C G37A | < 1e-05 |  |  |  | < 1e-05
G7C A12G C67A | < 1e-05 |  |  |  | < 1e-05
U45C C58A | < 1e-05 |  |  | < 1e-05 | 
A36C G37U G51U | < 1e-05 |  |  |  | 
A36U G37C G41C U55G | < 1e-05 | < 1e-05 |  |  | < 1e-05
A52U C58U | < 1e-05 | < 1e-05 | < 1e-05 | < 1e-05 | < 1e-05
C11U G40C U46G | < 1e-05 |  |  |  | 
G32U U49C | < 1e-05 | < 1e-05 | < 1e-05 | < 1e-05 | 
C8G C16A A42U U65A | < 1e-05 |  |  |  | < 1e-05
G29C U45A | 7.41e-05 ± 2.6e-05 | 0.000828 ± 0.00023 | 0.000499 ± 0.00024 |  | 0.00281 ± 0.00086
G9A C16G | < 1e-05 | < 1e-05 | < 1e-05 | < 1e-05 | 
A15U C34A A64U C68A | < 1e-05 |  |  |  | < 1e-05
C34U A48G | < 1e-05 | < 1e-05 | < 1e-05 | < 1e-05 | < 1e-05
C61U A64G C70G | < 1e-05 |  |  |  | 
C10G G43U U65A | < 1e-05 |  | < 1e-05 |  | 
C58U G59C | < 1e-05 |  |  |  | 
U30A A52C | < 1e-05 | < 1e-05 | < 1e-05 | < 1e-05 | < 1e-05
G9A A12U G13C G40C | < 1e-05 |  |  |  | < 1e-05
C11G U45A | < 1e-05 |  |  |  | 

Variant | self-cleavage kobs at 40 uM GlcN6P (glucosamine-6-phosphate [1]) [s⁻¹] | self-cleavage kobs at 640 uM GlcN6P (glucosamine-6-phosphate [2]) [s⁻¹] | self-cleavage kobs at 2500 uM GlcN6P (glucosamine-6-phosphate [3]) [s⁻¹] | self-cleavage kobs at 160 uM GlcN6P (glucosamine-6-phosphate [4]) [s⁻¹] | self-cleavage kobs at 10000 uM GlcN6P (glucosamine-6-phosphate [5]) [s⁻¹]
G7A G60A | < 1e-05 | < 1e-05 |  | < 1e-05 | < 1e-05
G9A G35U | < 1e-05 | < 1e-05 |  | < 1e-05 | 
C8A U31A | < 1e-05 |  |  |  | 
A36C G66A | < 1e-05 |  |  |  | < 1e-05
G60C U69G | < 1e-05 |  |  | < 1e-05 | < 1e-05
C58A A64U | < 1e-05 |  | < 1e-05 |  | < 1e-05
G35A U49G C71A | < 1e-05 |  |  |  | < 1e-05
U30G G32C A39G U45C A52U G63A | < 1e-05 | < 1e-05 | < 1e-05 |  | < 1e-05
C8A G37A | < 1e-05 |  |  |  | < 1e-05
U30A U49A G62U | < 1e-05 |  |  |  | 
C8A A15C | < 1e-05 | < 1e-05 | < 1e-05 | < 1e-05 | 
A14U G43U G51U | < 1e-05 |  | < 1e-05 |  | 
C10A G59C | < 1e-05 | < 1e-05 | < 1e-05 | < 1e-05 | < 1e-05
G29C C34A | < 1e-05 | < 1e-05 | < 1e-05 | < 1e-05 | < 1e-05
G35C U56C | < 1e-05 | < 1e-05 | < 1e-05 | < 1e-05 | < 1e-05
A33C G43C | < 1e-05 | < 1e-05 | < 1e-05 | < 1e-05 | < 1e-05
U30C U47C C58A U65A | < 1e-05 |  |  |  | 
U55A A64U C68U | < 1e-05 |  |  |  | 
U31G C68A | < 1e-05 | 3.5e-05 ± 1.6e-05 | 8.49e-05 ± 1.9e-05 |  | 
C8U G41A | < 1e-05 | < 1e-05 | < 1e-05 | < 1e-05 | < 1e-05
C8U G32C | < 1e-05 | < 1e-05 | < 1e-05 | < 1e-05 | < 1e-05
A15G G35C | < 1e-05 | < 1e-05 | < 1e-05 |  | 
C34U G41C G59A A64G | < 1e-05 | < 1e-05 |  | < 1e-05 | 

Variant | self-cleavage kobs at 40 uM GlcN6P (glucosamine-6-phosphate [1]) [s⁻¹] | self-cleavage kobs at 640 uM GlcN6P (glucosamine-6-phosphate [2]) [s⁻¹] | self-cleavage kobs at 2500 uM GlcN6P (glucosamine-6-phosphate [3]) [s⁻¹] | self-cleavage kobs at 160 uM GlcN6P (glucosamine-6-phosphate [4]) [s⁻¹] | self-cleavage kobs at 10000 uM GlcN6P (glucosamine-6-phosphate [5]) [s⁻¹]
A15C U49C | < 1e-05 | < 1e-05 | < 1e-05 | < 1e-05 | < 1e-05
A12U A42U G59C | < 1e-05 |  |  |  | 
C8A G59C | < 1e-05 | < 1e-05 | < 1e-05 |  | 
A5U G40C | 0.000123 ± 2.6e-05 |  | 0.000574 ± 0.00021 |  | 
C19A G43U | < 1e-05 | < 1e-05 |  |  | 
A14G A33U G43A | < 1e-05 |  |  |  | < 1e-05
G41U G44C | < 1e-05 | < 1e-05 | < 1e-05 | < 1e-05 | < 1e-05
C10U A14C A36G G41A | < 1e-05 | < 1e-05 | < 1e-05 | < 1e-05 | 
C11A U45C | < 1e-05 | < 1e-05 |  |  | 
G35U G62C | < 1e-05 | < 1e-05 | < 1e-05 | < 1e-05 | < 1e-05
U49A U57G | < 1e-05 | < 1e-05 |  |  | 
G9C G51A A52U C70G | < 1e-05 | < 1e-05 |  |  | 
G7A C10G C50U | < 1e-05 |  |  |  | 
C10G G13A | < 1e-05 | < 1e-05 |  | < 1e-05 | 
A15C A36C C71U | < 1e-05 |  |  |  | < 1e-05
C11U C61G U69C | 9.12e-05 ± 2.3e-05 |  |  |  | 4.04e-05 ± 1.7e-05
G32C G35A G51U | < 1e-05 |  | < 1e-05 |  | < 1e-05
G41A G59U | < 1e-05 | < 1e-05 |  |  | < 1e-05
A6G A36C C71U | < 1e-05 |  |  |  | < 1e-05
A53U C67G | 3.3e-05 ± 8.7e-06 | 0.000519 ± 0.00012 | 0.000628 ± 0.0001 | 7.53e-05 ± 2e-05 | 0.00224 ± 0.00024
A12U U65A C67A | 6.19e-05 ± 1.3e-05 |  |  |  | 0.000114 ± 2e-05
C10G G43A A48G U54G C58A A64U | < 1e-05 | < 1e-05 | < 1e-05 |  | < 1e-05
A6U G9U | < 1e-05 | < 1e-05 | < 1e-05 | < 1e-05 | 

Variant | self-cleavage kobs at 40 uM GlcN6P (glucosamine-6-phosphate [1]) [s⁻¹] | self-cleavage kobs at 640 uM GlcN6P (glucosamine-6-phosphate [2]) [s⁻¹] | self-cleavage kobs at 2500 uM GlcN6P (glucosamine-6-phosphate [3]) [s⁻¹] | self-cleavage kobs at 160 uM GlcN6P (glucosamine-6-phosphate [4]) [s⁻¹] | self-cleavage kobs at 10000 uM GlcN6P (glucosamine-6-phosphate [5]) [s⁻¹]
C10A U49A | < 1e-05 | < 1e-05 |  | < 1e-05 | 
A6G C16G C67G | < 1e-05 |  |  |  | 
G7C U31C | < 1e-05 |  |  | < 1e-05 | 
G37U G59A | < 1e-05 | < 1e-05 |  |  | 
G9A G13C U45G U57A | < 1e-05 |  |  |  | < 1e-05
A6U G32C G59A | < 1e-05 |  |  |  | < 1e-05
A42U G63A | < 1e-05 | < 1e-05 |  |  | < 1e-05
G7C U46G C67G | < 1e-05 |  |  |  | < 1e-05
G59C | < 1e-05 | < 1e-05 |  | < 1e-05 | < 1e-05
A12U U49A | < 1e-05 |  |  | < 1e-05 | 
G13A G59C | < 1e-05 |  |  | < 1e-05 | < 1e-05
A42C G63A | < 1e-05 | < 1e-05 |  | < 1e-05 | < 1e-05
C8G A15G | < 1e-05 | < 1e-05 | < 1e-05 | < 1e-05 | < 1e-05
G9C G41C | < 1e-05 | < 1e-05 | < 1e-05 | < 1e-05 | < 1e-05
C34G A64U | < 1e-05 | < 1e-05 | < 1e-05 | < 1e-05 | < 1e-05
A14C G29A A33U | < 1e-05 |  | < 1e-05 | < 1e-05 | 
U54A C61U G62A | < 1e-05 | < 1e-05 |  |  | < 1e-05
A15G C50G C70U | 5.62e-05 ± 1.6e-05 | 0.000167 ± 3.8e-05 | 0.00023 ± 5.9e-05 |  | 4.88e-05 ± 1.3e-05
C10G U30A | < 1e-05 | < 1e-05 | < 1e-05 | < 1e-05 | < 1e-05
G7U A53G U69G | 8.14e-05 ± 2.1e-05 | 0.000822 ± 0.00023 | 9.39e-05 ± 3.9e-05 |  | 9.89e-05 ± 2e-05
G35C U69A C70G | < 1e-05 |  |  |  | 
